Data set [1] deals with human peripheral blood mononuclear cells (PBMCs). Nature of the data set: Human PBMC IL-2 production assay with plate-bound anti-CD3. It counts as cell-based. How it is done: The ability of the variant CD80-Fc fusion proteins to promote IL-2 production in the context of anti-CD3 (to stimulate T cell receptor signaling) in human peripheral blood mononuclear cells (PBMCs) was tested. To bind anti-CD3 antibody on the plate, the anti-human-CD3 (clone HIT3a, BD Pharmingen) was incubated in 96-well plates at 4° C. overnight at 1 μg/ml unless otherwise noted. Human PBMCs were isolated from freshly collected human whole blood using Ficoll-Paque Plus. Human PBMCs (100,000 per well) were incubated with plate-bound anti-CD3 and the indicated concentrations of soluble CD80-Fc fusion protein in RPMI+10% HI-FBS, pen/strep, sodium pyruvate and non-essential amino acids. After 48 hours incubation, supernatants were collected and IL-2 measured by the Quantikine human IL-2 ELISA kit from R&D.
Additional CD80-Fc fusion proteins were tested in the same PBMC assay, at the concentration of anti-human-CD3 (clone HIT3a, BD Pharmingen) noted.

Data set [2] is described as follows: Pharmacokinetics in huFcRn transgenic mice. To be noted: 0.1 mg/kg IV.
Description: PK of CD80-Fc fusion proteins was also assessed in transgenic mice expressing the human neonatal Fc receptor (huFcRn) a-chain transgene under the control of its natural human promoter. Female mice were dosed intravenously with CD80-Fc fusion proteins at 0.1 mg/kg, and blood was collected at the timepoints indicated on the graph. Levels of CD80-Fc in mouse plasma were measured as described above.
The nature of data set [3]: Thermal forced aggregation (SEC). It is filed as physicochemical. To be noted: Table 11, 24 hours, PBS. How it is done: To assess the aggregation propensity of variant CD80-Fc fusion proteins, 1 mg/ml of CD80-Fc fusion protein was incubated in PBS at increasing temperatures for 24 hours. The samples were analyzed by SEC on an Agilent 1100 (Agilent Technologies, Germany) HPLC system using a YMC-Pack Diol-200 (YMC, Germany) analytical size exclusion chromatography column and PBS supplemented to 400 mM NaCl as running buffer. % aggregation was calculated from the loss of intact peak area. […] ND=Not Determined.

Data set [4] relates to B16F10 murine melanoma cells. Nature of the data set: B16F10 melanoma model, combination with αPD1 antibody. It counts as in vivo, mouse. To be noted: CD80-D90Q-E23C-A26C-Fc 3 mg/kg and/or αPD1 Ab 10 mg/kg. How it is done:
B16F10 murine melanoma cells (0.5 million) were subcutaneously implanted in the hind flank of female C57BL/6J mice. When tumors reached ˜100 mm3, mice were randomized and dosed with PBS vehicle control, 3 mg/kg CD80-D90Q-E23C-A26C-Fc, and or 10 mg/kg murine αPD1 antibody. CD80-D90Q-E23C-A26C-Fc was dosed on Days 0 and 3, αPD1 antibody was dosed on Days 0, 3 and 6. Tumor volume was determined by caliper measurements obtained in 2 dimensions and calculated as width^2×length/2. Error bars are depicted as ±SEM

For data set [5], the system named is peripheral blood mononuclear cells (PBMC). In words: RESTORE cytokine release assay in absence of TCR stimulation. Also noted: IFNγ: unit not given beside the values. The following applies: Table 20. It is filed as cell-based, human. How it is done: The ability of variant CD80-Fc fusion proteins to promote cytokine release in the absence of TCR stimulation was assessed in the RESTORE (RESetting T cells to Original Reactivity) assay (Römer et al, Blood, 2011). Freshly isolated peripheral blood mononuclear cells (PBMC) from whole blood of several healthy donors were cultured for 48 hours at […] within RPMI1640 media supplemented with 10% autologous plasma, 10 mM HEPES, 1× GlutaMAX, 1× PenStrep, beta2-mercaptoethanol, NEAA and sodium pyruvate. Following the 48-hour incubation, PBMC were pelleted and resuspended at a final concentration of 10^6/ml with indicated soluble drug. Treatment was allowed for 48 hours then supernatant was harvested and assessed in IL-2 and IFNγ ELISA according to manufacturer's protocol (BioLegend).
Positive controls included CD28 superagonist anti-CD28 clone TGN1412 as IgG1 and IgG4 isotypes and anti-CD3. […] Values shown are the average of 3 technical replicates. D=Donor.

In data set [6] the test system is CT26 murine colorectal carcinoma tumor cells. In words: CT26 murine colorectal carcinoma model. It counts as in vivo, mouse. To be noted: for Day 10 tumor volume: Days 0 and 3; for % tumor growth inhibition: Day 10. How it is done: CT26 murine colorectal carcinoma tumor cells (1×10^6) were subcutaneously implanted in the hind flank of female Balb/c mice. When tumors reached ˜100 mm3 (Day 8), mice were randomized. PBS vehicle control or variant CD80-Fc fusion proteins were dosed intravenously at 0.1 and 1.0 mg/kg on Days 0 and 3. Tumor volume was determined by caliper measurements obtained in 2 dimensions and calculated as width^2×length/2. Error bars are depicted as ±SEM.
IFNγ ELIspot was used to measure tumor-reactive T cells in the spleen in mice treated with CD80-Fc fusion proteins at a 1 mg/kg dose.
Cytotoxic CD8^+ T cells are responsible for killing cancer cells and the measurement of CD8^+ T cells that have infiltrated tumors commonly correlates with efficacy for immune-oncology therapies. For all in vivo studies, tumors were collected ˜1 week after the first dose and dissociated by mincing, followed by incubation in an enzymatic digestion cocktail and homogenization. The resulting cell suspension was filtered and washed, and single cells were stained with antibodies to CD45, CD8, and a viability dye to detect tumor-infiltrating lymphocytes (TILs) by flow cytometry. Data were acquired on a BD LSRFortessa flow cytometer or a Cytek Aurora spectral flow cytometer. Table 31 and FIG. 18 show the amount of tumor-infiltrating CD8+ T cells expressed as a percentage of total immune cells (CD45+). Each value is the average of n=4 mice per group. Treatment with all variant CD80-Fc fusion proteins led to increase in CD8+ TILs in various tumor models.

The nature of data set [7]: Thermal stability by Differential Scanning calorimetry (DSC). It is filed as physicochemical. To be noted: PBS. How it is done: There is a correlation between the thermal stability of a protein with the overall stability of the protein. Enhanced thermal stability often provides improved manufacturability and longer shelf life/stability. Thermal stability of variant CD80-Fc fusion proteins was assessed by Differential Scanning calorimetry (DSC). Variant CD80-Fc fusion proteins were analyzed using a MicroCal VP-DSC instrument. […] Tables 8-10 show the first thermal transition temperature (Tm1) of CD80-Fc fusion proteins and the enhanced thermal stability of variant CD80-Fc fusion proteins compared to CD80-WT-Fc fusion proteins.
Background: Differential scanning calorimetry records heat flow against a reference as temperature is scanned.

By EC50 is commonly meant the concentration at which the effect is half-maximal. Broadly, the AUC is concentration integrated over time. The term Vdss denotes a proportionality between amount in the body and measured concentration, not a real space. As a reminder, the Cmax is the highest concentration seen after dosing. In turn, “CD80-D90Q-E23C-A26C-Fc: disulfide stabilized variant CD80-Fc fusion protein (D90Q, E23C, A26C)” returned an EC50 in data set [1] (average of 5 PBMC donors, 1 μg/ml anti-CD3, 48 hours) of 24.2 ± 10 nM. Also, the AUC in data set [2] came out at 88000 ng·h/mL. In data set [2], this substance came in with a CL of 15.8 mL/day/kg. In data set [2], this substance had a T1/2 of 148 h. Also, the Vdss in data set [2] is 0.131 L/kg. Further, the Cmax in data set [2] (average of 3 animals) is 1400 ng/mL. In addition, the “% aggregation” value stood at 0.0% in data set [3] (40° C.); 0.1% in data set [3] (45.3° C.); 0.1% in data set [3] (49.4° C.); 0.5% in data set [3] (54.9° C.); 26.2% in data set [3] (59.1° C.); 68.8% in data set [3] (64° C.). In addition, the “Day 10 tumor volume” value in data set [4] is 1208.8 mm^3; in data set [6] (0.1 mg/kg IV), 388.9 mm^3; in data set [6] (1 mg/kg IV) it was 197.8 mm^3. Moreover, the “% tumor growth inhibition” value is given as 26.3% in data set [4] (Day 10), 67.53% in data set [6] (0.1 mg/kg) and 83.49% in data set [6] (1 mg/kg). The IFNγ was determined as 4.0 in data set [5] (D222, 1 μg/ml); 4.7 in data set [5] (D222, 10 μg/ml); 5.0 in data set [5] (D281, 1 μg/ml); 6.3 in data set [5] (D281, 10 μg/ml); 7.3 in data set [5] (D462, 1 μg/ml); 6.0 in data set [5] (D462, 10 μg/ml). For the same substance, the IFNγ in data set [5] (D547, 1 μg/ml) is reported as 3.3; in data set [5] (D547, 10 μg/ml), 5.0. Also, the IL-2 in data set [5] (D222, 1 μg/ml) was 7.0; in data set [5] (D222, 10 μg/ml), 11.0; in data set [5] (D281, 1 μg/ml), 2.0; in data set [5] (D281, 10 μg/ml), 2.0; in data set [5] (D462, 1 μg/ml), 1.7; in data set [5] (D462, 10 μg/ml) it was 2.0. Also, the IL-2 in data set [5] (D547, 1 μg/ml) is recorded as 4.3; in data set [5] (D547, 10 μg/ml), 12.0. For the same substance, the “Number of tumor regressions” value is given as 2/10 in data set [6] (0.1 mg/kg) and 9/10 in data set [6] (1 mg/kg). In addition, the “# IFNγ-producing spots (tumor-reactive T cells in spleen)” value in data set [6] (1 mg/kg, average of n = 4 mice) came to 523.1875.
In data set [1] (Donor 418, 0.3 ug/ml anti-CD3), “CD80-V22F-T28V-T57V-Fc: non-cysteine stabilized variant CD80-Fc fusion protein” had an EC50 of 5.13 nM. In addition, the “DSC Tm1” value in data set [7] amounted to 64 °C.

The record behind these values is patent US20240209061A1, “FUSION PROTEINS AND USES THEREOF” (Pfizer Inc., priority 2020, published 2024).
